# Laboratory results from publication PMC9570017, “Unorthodox PCNA Binding by Chromatin Assembly Factor 1” (International Journal of Molecular Sciences, 2022).
# “Also recorded” adds a separate entry of the source.
# Experiments:
# PCNA = test: Crystal model of p150 PIP bound to PCNA; assay type: binding, human; settings: synthetic 20-amino acid peptide, crystals at pH 5, resolution 46.2–2.4 Å; only RFF residues modelled; model could not be refined further
# Experimental: In order to better understand the molecular basis of CAF-1 binding to PCNA, we determined the crystal model of a complex between a synthetic peptide encompassing the p150 PIP and PCNA. The crystal model was solved using molecular replacement from a previously published PCNA structure (Table 1 and Materials and Methods). PCNA samples were incubated with a 20-amino acid PIP derived from CAF-1 p150. The PIP used for crystallization, […] (PIP residues in italics), spanned the entire PIP region.
# A CAF-1 p150 synthetic peptide with the sequence […] was synthesized at the University of Cambridge in-house protein and nucleic acid facility (PNAC). For use in crystallization trials, the synthetic peptide was dissolved in demineralized water to a concentration of 23 mM. Initial crystallization conditions were further refined and optimized with the help of the PACT suite (Qiagen) and Additive Screen (Hampton Research), which contain multiple reagent libraries that enhance the solubility and crystallization of biological macromolecules. […]
# The eluate was subsequently purified with a Superdex™ 200 gel filtration column (GE Healthcare) in gel filtration buffer 20 mM Tris pH 7.5, 150 mM NaCl, 1 mM DTT. The fractions corresponding to PCNA homotrimer were pooled, concentrated with an amicon concentrator with 3 kDa MWCO, quantified using absorbance at A280 nm, and stored at - […]
# [1] = system: DNA replication-coupled nucleosome assembly (S100 extract from human HEK-293 cells); test: Replication-dependent nucleosome assembly assay (SV40 DNA replication, S100 extract); assay type: biochemical; settings: increasing amounts of in vitro translated p150 (rCAF-1: positive control), 45 min + 45 min at 37 °C, autoradiography
# From the text: We next sought to compare the activities of CAF-1 p150, wild-type, and the R426D mutant in a replication-coupled chromatin assembly assay. As a first step to performing this assay, we expressed CAF-1 p150 wild-type and the R426D mutant in a rabbit reticulocyte lysate coupled transcription and translation system and labelled the proteins with [^35S]-methionine. […] In the replication coupled chromatin assembly system, an S100 extract from cultured human HEK-293 cells provides all the cellular DNA replication enzymes and histones but lacks CAF-1 p150 [37]. To this extract, a plasmid containing an SV40 origin of replication and the viral replication protein, SV40 large T antigen, were added to support SV40 DNA replication. Radiolabeled dATP was also added to visualize the replication products by autoradiography.
# In contrast, when the recombinant CAF1 protein (p150, p60, p48) or the p150 subunit alone are added, they bind to histones in the S100 extract and promote nucleosome assembly coupled with DNA replication. DNA topoisomerase enzyme I, which is present in the S100 extract (and further supplemented in these assays to ensure sufficient levels), removes the positive supercoiling in the linker DNA that connects nucleosomes, leaving negative supercoiling due to DNA wrapping around histone octamers (evident upon subsequent removal of the histones and electrophoresis).
# Replication reactions were assembled as previously reported. […]
# The reactions were extracted using phenol, chloroform, and isoamyl alcohol (25:24:1) and the DNA was then precipitated with sodium acetate and ethanol. […] The products of replication were analyzed using a native 1.25% agarose gel in 1X TAE buffer with 1 mM MgCl2, without the addition of ethidium bromide. […] The gel was subsequently imaged and analyzed using a phosphor imager (Typhoon FLA 7000) to visualize the replicated DNA.
molecule,measurement,setting,value
IKAEKAEITRFFQKPKTPQA [CAF-1 p150 PIP],binding mode to PCNA in crystal model,PCNA,one CAF-1 p150 PIP bound to each PCNA monomer; also recorded: forms a cation-π interaction with Tyr 250 of PCNA
"wild-type CAF-1 p150: full-length mouse CAF-1 p150 expressed in rabbit reticulocyte lysate (protein, [35S]-methionine labelled) MLEEPEAATRTAAAVDCKDRPGFPVKRLIQARLPFKRLNLVPKEKVEEDTSPKAAVESKVPDLQLSLGTFESQCHTGSHVGLSTKLVGGQGPIDSFLRATIKPVPSVVIIDLTENCSDIPDSPEGHSELSPDTAGVVTTVEGAAKQQEHSAAELCLLETPSDITCHMEEEPGSPGDPKRTGDCQAGSLQSCPELTPGSRTCPTKELSSWSKAGDLLFIEKVPVVVLEDILATKPSIASLPMMSLDRSVTSESEILESCPEDDSILSHSSTNSSSPTSSPEGPSTPPEHRGGRSSPSTPACRVAKNFVKGSTEKGRSKLHRDREQQREEKEKLREEIRRAKEEARKKKEEEKELKEKERREKREKDEKEKAEKQRLKEEKRKERQEALEAKLEEKRKKEEEKRLREEEKRLREEEKRIKAEKAEITRFFQKPKTPQAPKTLAGSCGKFAPFEIKEHMVLAPRCRAALDQDLCDQLDQLLQQQSVASTFLSDLKSRLPLRSGPTRVCGHDTDIMNRDVVIVESSKVDGVSERKKFGRMKLLQFSENHRPAYWGTWNKKTAIIRPRNPWAQDKDLLDYEVDSDDEWEEEEPGESLSHSEGDEDDDVGEDEDEDDGFFVPHGYLSEDEGVTEECADPENHKVHQKLKAKEWDELLAKGKRFRVLQPVHVGCVWASEAANCTSSDLKLLQQFTACLLDVASPDEPEPGASRREKRDQHILAQLLPLLHGNVNGSKVIIHEFQEQCRRGLLTLPSPTPHLQMPNLEDAVAVPSKARLKRLISENSAYEKRPNFRMCWYVHPEVLKSFGQECLPVPCQWTYITTMPSAPREDSGSASTEGPGQSTPMLLKRKPAATMCITQFMKKRRYDGQVGSGDMDGFQADTEEDEEDDTDCMIIDVPDVGSDVSEAPIPAPTLCK",supercoiling of replicated DNA / nucleosome assembly,[1],the replication products were supercoiled
"R426D mutant: full-length mouse CAF-1 p150 with R426D, expressed in rabbit reticulocyte lysate (protein, [35S]-methionine labelled) MLEEPEAATRTAAAVDCKDRPGFPVKRLIQARLPFKRLNLVPKEKVEEDTSPKAAVESKVPDLQLSLGTFESQCHTGSHVGLSTKLVGGQGPIDSFLRATIKPVPSVVIIDLTENCSDIPDSPEGHSELSPDTAGVVTTVEGAAKQQEHSAAELCLLETPSDITCHMEEEPGSPGDPKRTGDCQAGSLQSCPELTPGSRTCPTKELSSWSKAGDLLFIEKVPVVVLEDILATKPSIASLPMMSLDRSVTSESEILESCPEDDSILSHSSTNSSSPTSSPEGPSTPPEHRGGRSSPSTPACRVAKNFVKGSTEKGRSKLHRDREQQREEKEKLREEIRRAKEEARKKKEEEKELKEKERREKREKDEKEKAEKQRLKEEKRKERQEALEAKLEEKRKKEEEKRLREEEKRLREEEKRIKAEKAEITDFFQKPKTPQAPKTLAGSCGKFAPFEIKEHMVLAPRCRAALDQDLCDQLDQLLQQQSVASTFLSDLKSRLPLRSGPTRVCGHDTDIMNRDVVIVESSKVDGVSERKKFGRMKLLQFSENHRPAYWGTWNKKTAIIRPRNPWAQDKDLLDYEVDSDDEWEEEEPGESLSHSEGDEDDDVGEDEDEDDGFFVPHGYLSEDEGVTEECADPENHKVHQKLKAKEWDELLAKGKRFRVLQPVHVGCVWASEAANCTSSDLKLLQQFTACLLDVASPDEPEPGASRREKRDQHILAQLLPLLHGNVNGSKVIIHEFQEQCRRGLLTLPSPTPHLQMPNLEDAVAVPSKARLKRLISENSAYEKRPNFRMCWYVHPEVLKSFGQECLPVPCQWTYITTMPSAPREDSGSASTEGPGQSTPMLLKRKPAATMCITQFMKKRRYDGQVGSGDMDGFQADTEEDEEDDTDCMIIDVPDVGSDVSEAPIPAPTLCK",supercoiling of replicated DNA / nucleosome assembly,[1],much less supercoiling was observed
same,supercoiling of replicated DNA / nucleosome assembly,[1]; listed as CAF-1 R426D mutant,deficient in nucleosome assembly
